FireProtDB (doi:10.1111/j.1432-1033.1988.tb14214.x)

B1: Protein S100-G, P02633 (parent)
chain: MSAKKSPEELKGIFEKYAAKEGDPNQLSKEELKLLLQTEFPSLLKGPSTLDELFEELDKNGDGEVSFEEFQVLVKKISQ

Variants of: B1
Conditions: Bos taurus; pH 7.1; 25 °C; Urea; CD; PIPES 20 mM; reversible: yes; structure 1IGV; whole UniProt chain shown

| Variant | ddG of mutation (higher = less stable) [kcal/mol] | denaturant m value [kcal/mol/M] | denaturant midpoint (higher = more stable) [M] | unfolding free energy [kcal/mol] |
| --- | --- | --- | --- | --- |
| Y17F | 1.19 | 0.89 | 4.1 | 3.59 |
| P24G | 1.19 | 0.79 | 4.7 | 3.59 |
| E21Q | -0.48 | 0.91 | 5.6 | 5.26 |
